Laboratory results published in US20230236179A1.

How the values were obtained:
[1] = molecular target: human Brachyury protein standard (Abcam ab114235) (human) (UniProt O15178); experiment: conventional Simoa sandwich (capture beads + detector m8), 300 pM SβG/15 min; Brachyury at 0.048 fM
[2] = molecular target: human Brachyury protein standard (Abcam ab114235) (human) (UniProt O15178); experiment: dSimoa sandwich (capture beads + detector m8), 300 pM streptavidin-DNA/15 min; Brachyury at 0.048 fM
[3] = molecular target: human Brachyury protein standard (Abcam ab114235) (human) (UniProt O15178); experiment: conventional Simoa sandwich (capture beads + detector m8), 150 pM SβG/5 min; Brachyury at 30 fM
[4] = molecular target: human Brachyury protein standard (Abcam ab114235) (human) (UniProt O15178); experiment: conventional Simoa sandwich (capture beads + detector m8), 150 pM SβG/5 min; Brachyury at 1.2 fM
[5] = molecular target: human Brachyury protein standard (Abcam ab114235) (human) (UniProt O15178); experiment: conventional Simoa sandwich (capture beads + detector m8), 300 pM SβG/15 min; Brachyury at 150 fM
[6] = molecular target: human Brachyury protein standard (Abcam ab114235) (human) (UniProt O15178); experiment: conventional Simoa sandwich (capture beads + detector m8), 150 pM SβG/5 min; Brachyury at 1500 fM
[7] = molecular target: human Brachyury protein standard (Abcam ab114235) (human) (UniProt O15178); experiment: dSimoa sandwich (capture beads + detector m8), 300 pM streptavidin-DNA/15 min; Brachyury at 6 fM
[8] = molecular target: human Brachyury protein standard (Abcam ab114235) (human) (UniProt O15178); experiment: conventional Simoa sandwich (capture beads + detector m8), 150 pM SβG/5 min; Brachyury at 6 fM
[9] = molecular target: human Brachyury protein standard (Abcam ab114235) (human) (UniProt O15178); experiment: conventional Simoa sandwich (capture beads + detector m8), 300 pM SβG/15 min; Brachyury at 0.24 fM
[10] = molecular target: human Brachyury protein standard (Abcam ab114235) (human) (UniProt O15178); experiment: dSimoa sandwich (capture beads + detector m8), 300 pM streptavidin-DNA/15 min; Brachyury at 30 fM
[11] = molecular target: human Brachyury protein standard (Abcam ab114235) (human) (UniProt O15178); experiment: conventional Simoa sandwich (capture beads + detector m8), 300 pM SβG/15 min; Brachyury at 30 fM
[12] = molecular target: human Brachyury protein standard (Abcam ab114235) (human) (UniProt O15178); experiment: dSimoa sandwich (capture beads + detector m8), 300 pM streptavidin-DNA/15 min; Brachyury at 1.2 fM
[13] = molecular target: human Brachyury protein standard (Abcam ab114235) (human) (UniProt O15178); experiment: conventional Simoa sandwich (capture beads + detector m8), 150 pM SβG/5 min; Brachyury at 0.048 fM
[14] = molecular target: human Brachyury protein standard (Abcam ab114235) (human) (UniProt O15178); experiment: conventional Simoa sandwich (capture beads + detector m8), 300 pM SβG/15 min; Brachyury at 1500 fM
[15] = molecular target: human Brachyury protein standard (Abcam ab114235) (human) (UniProt O15178); experiment: dSimoa sandwich (capture beads + detector m8), 300 pM streptavidin-DNA/15 min; Brachyury at 0.24 fM
[16] = molecular target: human Brachyury protein standard (Abcam ab114235) (human) (UniProt O15178); experiment: conventional Simoa sandwich (capture beads + detector m8), 150 pM SβG/5 min; Brachyury at 0.24 fM
[17] = molecular target: human Brachyury protein standard (Abcam ab114235) (human) (UniProt O15178); experiment: conventional Simoa sandwich (capture beads + detector m8), 300 pM SβG/15 min; Brachyury at 6 fM
[18] = molecular target: human Brachyury protein standard (Abcam ab114235) (human) (UniProt O15178); experiment: dSimoa sandwich (capture beads + detector m8), 300 pM streptavidin-DNA/15 min; Brachyury at 150 fM
[19] = molecular target: human Brachyury protein standard (Abcam ab114235) (human) (UniProt O15178); experiment: conventional Simoa sandwich (capture beads + detector m8), 300 pM SβG/15 min; Brachyury at 1.2 fM
[20] = molecular target: human Brachyury protein standard (Abcam ab114235) (human) (UniProt O15178); experiment: conventional Simoa sandwich (capture beads + detector m8), 150 pM SβG/5 min; Brachyury at 150 fM

UniProt O15178, sequence (O15178 whole entry): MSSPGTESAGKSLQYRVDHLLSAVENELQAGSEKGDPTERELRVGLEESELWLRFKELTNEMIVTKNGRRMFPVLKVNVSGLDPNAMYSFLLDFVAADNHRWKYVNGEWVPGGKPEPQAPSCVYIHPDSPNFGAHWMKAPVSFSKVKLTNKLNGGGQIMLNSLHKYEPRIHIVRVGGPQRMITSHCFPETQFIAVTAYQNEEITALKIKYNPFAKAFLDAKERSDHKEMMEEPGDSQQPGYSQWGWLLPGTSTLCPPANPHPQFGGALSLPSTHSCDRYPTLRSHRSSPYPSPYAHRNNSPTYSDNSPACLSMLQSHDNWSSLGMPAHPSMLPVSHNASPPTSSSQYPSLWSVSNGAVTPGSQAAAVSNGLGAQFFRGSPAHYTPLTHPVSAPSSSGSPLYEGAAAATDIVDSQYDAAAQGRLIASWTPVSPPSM

average AEB [1]: 0.0398 AEB | average AMB [2]: 0.0127 AMB | average AEB [3]: 0.156 AEB | average AEB [4]: 0.0174 AEB | average AEB [5]: 1.77 AEB | average AEB [6]: 5.97 AEB | average AMB [7]: 0.0417 AMB | average AEB [8]: 0.0425 AEB | average AEB [9]: 0.0395 AEB | average AMB [10]: 0.156 AMB | average AEB [11]: 0.358 AEB | average AMB [12]: 0.0173 AMB | average AEB [13]: 0.0108 AEB | average AEB [14]: 14.3 AEB | average AMB [15]: 0.0147 AMB | average AEB [16]: 0.012 AEB | average AEB [17]: 0.105 AEB | average AMB [18]: 0.825 AMB | average AEB [19]: 0.0494 AEB | average AEB [20]: 0.677 AEB
Substance: Brachyury capture antibody (Abcam ab236023)
